Substitutions are numbered along the chain they refer to.

The results in this text go back to patent CN117677637A (PETEMEDI LTD, dated 2024).

Experiment [1] deals with T1, 犬CD20 (canine CD20, B淋巴细胞抗原CD20, full length, wild type) (canine (dog), UniProt Q3C2E2 1-297).
T1 construct: Stably expressed from full-length cDNA on MDCK II (or HEK293) cells for flow cytometry and ADCC; naturally expressed on CLBL-1 canine lymphoma cells in the CDC assay; also called cCD20; MS4A1
T1 chain: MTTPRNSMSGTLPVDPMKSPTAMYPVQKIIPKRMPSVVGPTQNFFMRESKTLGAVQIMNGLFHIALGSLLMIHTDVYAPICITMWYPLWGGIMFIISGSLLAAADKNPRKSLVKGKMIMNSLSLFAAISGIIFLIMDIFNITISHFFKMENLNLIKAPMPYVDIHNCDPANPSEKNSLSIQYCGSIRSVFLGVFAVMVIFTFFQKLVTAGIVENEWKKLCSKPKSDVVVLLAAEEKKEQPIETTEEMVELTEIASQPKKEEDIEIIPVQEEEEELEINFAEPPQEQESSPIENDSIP
Nature of the experiment: flow cytometry on MDCK cells expressing wild-type canine CD20 (positive control of epitope mapping). (A flow cytometer gives signals particle by particle.)

Experiment [2] concerns the target T1, 犬CD20 (canine CD20, B淋巴细胞抗原CD20, full …). Nature of the experiment: flow cytometry, 10 ug/ml antibody on MDCK II cells expressing canine CD20 (Fig 3A); equal to 4E1-7.
The target is the same in experiment [3]. Put plainly: flow cytometry, 10 ug/ml antibody on MDCK II cells expressing canine CD20 (Fig 3B).
Experiment [4] shares this target. Put plainly: flow cytometry on cells expressing canine CD20, against PMX003 (Fig 3B); slight decrease.
Experiment [5] shares this target. Nature of the experiment: flow cytometry on cells expressing canine CD20, against PMX003 (Fig 3B); unchanged.

B1: PMX003 (antibody, V domains shown)
VH: EVQLVESGGDLVKPGGSLRLSCVASGITFSRYHMSWVRQAPGKGLQWVAYINSGGSSTSYPDAVKGRFTISRDNAKNTLYLQMDSLRAEDTALYYCTTFDYWGQGTLVTVSS
VL: SYVLTQLPSKNVTLKQPAHITCGGDNIGSKSVHWYQQKLGQAPVLIIYYDSRRPTGIPERFSGANSGNTATLTISGALAEDEADYYCQVWDSSANVFGGGTHLTVL
notes: Fully canine mAb; Tested in native form and in an a-fucosylated form (made in Fut8 knockout CHO cells) in CDC/ADCC; also called PMX003 mAb
As for B1, the binding result in experiment [1] is reported as “binds”.

B2: PMX002 (antibody, V domains shown)
VH: EVQLVESGGDLVKPGGSLRLSCVASGIIFSNYHMSWVRQVPGKGLQWVAYINSGGSTINYADGVKGRFTISRDNAKNSLYLQMNSLRGEDTAVYYCTTYDSWGQGTLVTVSS
VL: B1 VL with R52S, A94V
notes: Fully canine mAb; also called PMX002 mAb
With B2, the binding result in experiment [2] was “binds”.

B3: PMX115 (antibody, V domains shown)
VH: EMQLVESGGALVKPGGSLRLSCVASGFTFRRYHMSWVRQAPGQGLQWVAYIDSDGSPTSYGDSVKGRFTISRDNAKNTLFLQMNSLRVDDTAVYYCTTLDYWGRGTLVTVSS
VL: B1 VL with L7V, N11S, S29G, V44L, S51T, G76R, A94G, L106I
notes: also called PMX115 mAb
In the case of B3, the binding result in experiment [1] is on record as “binds”.

B4: PMX011 (antibody, V domains shown)
VH: B1 VH
VL: B1 VL with N11T
notes: PMX003 heavy chain; Constant regions not restated (PMX003: dog IGGB / dog IGLC5); also called PMX011 mAb; TVT
B4: the binding result in experiment [3] is listed as “binds”.

B5: PMX006 (antibody, V domains shown)
VH: B1 VH
VL: B1 VL with N11Q
notes: PMX003 heavy chain; Constant regions not restated (PMX003: dog IGGB / dog IGLC5); also called PMX006 mAb; QVT突变体
As for B5, the binding result in experiment [4] is reported as “binds”.

B6: PMX008 (antibody, V domains shown)
VH: B1 VH
VL: B1 VL with N11E
notes: PMX003 heavy chain; Constant regions not restated (PMX003: dog IGGB / dog IGLC5); also called PMX008 mAb; EVT
As for B6, in experiment [5], the binding result is reported as “binds”.

B7: PMX009 (antibody, V domains shown)
VH: B1 VH
VL: B1 VL with T13A
notes: PMX003 heavy chain; Constant regions not restated (PMX003: dog IGGB / dog IGLC5); also called PMX009 mAb; NVA
B7: the binding result in experiment [5] is “binds”.

B8: PMX007 (antibody, V domains shown)
VH: B1 VH
VL: B1 VL with N11A
notes: PMX003 heavy chain; Constant regions not restated (PMX003: dog IGGB / dog IGLC5); also called PMX007 mAb; AVT突变体
Regarding B8, the binding result in experiment [4] is on record as “binds”.
